# Measured values taken from patent publication US20240352121A1, “LAIR-1 AGONISTIC ANTIBODIES AND METHODS OF USE THEREOF” (NEXTCURE, INC., priority 2023, published 2024).
# Columns and labels:
# healthy CD34+ cells = experiment: NC525 clustering of LAIR-1 in healthy CD34+ cells; format: cell-based, human
# MV4-11-Luc cells = experiment: In-vitro phagocytosis (ADCP) assay, mouse bone marrow macrophages with MV4-11-Luc cells; format: cell-based, human; conditions: 20 μg/ml, 16 hours
# Procedure: Mouse BMM was generated with 100 ng/ml M-CSF (Cat #416-ML-500) using seed BMM cells at 1e5/well in 24 well plate. Stain was done with Cell trace violet (Thermofisher). Target MV411 cells were labeled with PKH26 (Sigma #PKH26gl-1kt) according to manufacturer's instructions and cocultured with BMM at ratio of 5:1 in presence of 20 μg/ml h11B3 or control antibody for 16 hours. Phagocytosis was analyzed by flow cytometry.
# AML patient cells = experiment: Ex vivo depleting assay, AML patient blood leukocytes; format: cell-based, human
# Procedure: Whole blood from AML-diagnosed donors was RBC-depleted using StemCell RBC depletion kit following the manufacturer's instructions. Leukocytes were re-suspended in complete RPMI media containing 3 μg/mL of soluble mAb, then plated in 96-well round-bottom plates for 48 hours at 37° C. Cell death was analyzed by AnnexinV and Fixable Live-Dead staining following the manufacturer's instructions, quantified by flow cytometry. RBC depletion StemCell Ref #18170. Isotype=FC-G1 BioXcell Ref #BE0096. Live-Dead Stain Invitrogen Cat #L34966. AnnexinV-AF647 Biolegend Cat #640943.
# Fresh whole blood was RBC-depleted using the EasySep™ RBC Depletion Reagent (StemCell, Vancouver, BC) following the manufacturer's protocol. Alternatively, frozen PBMCs were thawed in pre-warmed cRPMI media. Cell number was determined by VI-Cell XR cell counter. 2e5 cells per well were plated into 96-well plates lacking or containing 50 μg/mL pre-coated human Collagen I (StemCell, Vancouver, BC) in 200 μL of cRPMI containing 10 μg/mL of soluble LAIR-1 mAb or isotype control antibody (NP782 (NextCure, Beltsville, MD) or InVivoMAb recombinant human IgG1 Fc (BioXcell, Lebanon, NH)). Plates were centrifuged at 100×g for 2 minutes, then incubated for 20 hours at 37° C. in a TC incubator. At the end of incubation period, plates were centrifuged at 500×g for 4 min. […]
# AML PBMCs = experiment: ADCC assay, AML patient PBMCs with healthy donor NK cells; format: cell-based, human; conditions: 3:1 Target:Effector ratio, 4 hours
# Procedure: ADCC was measured using the CytoTox 96® Non-Radioactive Cytotoxicity Assay (Promega) following the manufacturer's instructions. Briefly, AML patient PBMCs were mixed with healthy donor NK cells at a 3:1 Target:Effector ratio in complete RPMI containing the indicated concentration of soluble h11B3 or Fc-G1 isotype control. Mixed cells were incubated for 4 hours at 37 deg C. Test wells were run in quadruplicate. AML PBMCs-Donor #200018616, newly diagnosed/untreated. NK cells-Healthy Donor #83, isolated from PBMCs via StemCell Kit #17955 following manufacturer's instructions. CytoTox 96® Non-Radioactive Cytotoxicity Assay Promega Cat #G1780. % Cytotoxicity quantified by target cell LDH release. % Cytotoxicity=((Test Well LDH Release−Effector Cell Spontaneous Release−Target Cell Spontaneous Release)/(Target Cell Max Release−Target Cell Spontaneous Release))*100. Target Cells=AML PBMCs Donor #200018616; Effector Cells=NK cells isolated from healthy Donor #83 PBMCs. […] ADCC was measured using the Toxilight Bioluminescent Cytotoxicity Assay (Lonza)) following the manufacturer's instructions. […] Toxilight Bioluminescent Cytotoxicity Assay kit Lonza Cat #LT17-217. % Cytotoxicity quantified by target cell adenylate kinase release; ADCC calculated as described above. […]
# MV4-11 cells = experiment: MV4-11-luciferase cell-derived xenograft (CDX) model; format: in vivo, NSG mice
# Procedure: 2e6 luciferase-expressing MV4-11-Luc or THP-1-Luc cells were suspended in sterile PBS and implanted into NSG mice via tail-vein injection. […] AML cell proliferation was monitored by weekly i.p. injection of D-Luciferin, immediately followed by IVIS bioluminescent imaging and quantification of luminescent signal. […] Imaging Perkin Elmore IVIS Lumina XRMS Series III.
# NSG mice were injected with 2e6 THP-1 luciferase cells or 2e6 MV4-11-luciferase cells via tail vein injection. Leukemia progression was quantified by i.p. injection of 100 μL bioluminescent substrate and IVIS imaging 8 minutes post injection. Progression was assessed weekly staring on Day 7 post-challenge. 10 mg/kg mab treatment was performed by i.p injection starting on day 8 and continuing twice a week until the end of the study. For the subcutaneous engraftment model, NSG mice were subcutaneously injected on the right flank with 5e6 MV4-11-Luc-LAIR-1^OE cells. Mice were treated by weekly i.p. injection of 10 mg/kg mAb. Tumor growth was measured by calipers twice weekly until end point.
molecule,measurement,setting,value
"LAIR-1 mAb: humanized agonist anti-LAIR-1 mAb, IgG1 backbone; h11B3 VL-2 (SEQ ID NO: 16), h11B3 VH-3 (SEQ ID NO: 27) (antibody, V domains shown, IgG1 constant regions; Synthetic: h11B3 VH-3; Synthetic: h11B3 VL-2) VH: EVQLVESGGGLVQPGGSLKLSCAASGFTFNTNAMYWVRQAPGKGLEWVGRIRSKSSNYATYYAASVKGRFTISRDDSKNTLYLQMNSLKTEDTAVYYCVRGGSGFFAYWGQGTLVTVSS VL: DIQMTQSPSSLSASLGDRVTITCKASEDIYIRLAWYQQKPGKAPRLLISTATSLETGVPSRFSGSGSGTDYTFTISSLQPEDIATYYCQQYWSTPYTFGGGTRLEIK",changes in signaling activity,healthy CD34+ cells,minimal changes
same,ADCP activity,MV4-11-Luc cells,induces ADCP activity
same,AML cell death,"AML patient cells; 3 μg/mL soluble mAb, 48 hours",induces AML cell death
same,cell death of total AML patient cells or CD45Low SSCLow blasts,"AML patient cells; 10 μg/mL, plate-coated collagen",significant cell death
same,ADCC,AML PBMCs,induces AML cell death through antibody dependent cytotoxicity (ADCC)
same,leukemic cell growth in vivo,MV4-11 cells; 10 mg/kg i.p. twice a week,inhibited leukemic cell growth
same,inhibition of LAIR-1 OE AML growth compared to LAIR-1 WT,MV4-11 cells; MV4-11 LAIR-1 OE vs WT cells,more strongly inhibiting
same,tumor burden,"MV4-11 cells; biweekly dose of 10 mg/kg, flow cytometry of spleen and bone marrow",reduce tumor burden
same,"AML cells in the blood, spleen, and bone marrow","MV4-11 cells; mouse, in vivo",nearly absent
same,"percentage of dead MV4-11 cells in blood, spleen, and bone-marrow","MV4-11 cells; mouse, in vivo",increased
same,"MV4-11 in vivo growth, monotherapy","MV4-11 cells; physiologically relevant doses, 10 mg/kg NC525, 100 mg/kg VEN, 0.5 mg/kg AZA",significantly better activity than AZA monotherapy
